This data set concerns the molecule itself. In words: semi-native SDS PAGE; whole-cell lysates of WT and Nik-/- BMDMs transfected with B-DNA (2 μg/mL) for the indicated times; native sample buffer without β-mercaptoethanol, not boiled, run on SDS gels; immunoblot for STING. (In general: Immunoblotting shows a protein as a band on a membrane.)

Here are results for one protein from article PMC6050272, “A TRAF3-NIK module differentially regulates DNA vs RNA pathways in innate immune signaling” (Nature Communications, 2018).

What is called stoichiometry N is the number of molecules, sites or subunits per partner or assembly.

B1: STING, endogenous in mouse cells (natural protein, mouse (endogenous in MEFs and BMDMs), UniProt Q3TBT3 1-378, looked up)
chain: MPYSNLHPAIPRPRGHRSKYVALIFLVASLMILWVAKDPPNHTLKYLALHLASHELGLLLKNLCCLAEELCHVQSRYQGSYWKAVRACLGCPIHCMAMILLSSYFYFLQNTADIYLSWMFGLLVLYKSLSMLLGLQSLTPAEVSAVCEEKKLNVAHGLAWSYYIGYLRLILPGLQARIRMFNQLHNNMLSGAGSRRLYILFPLDCGVPDNLSVVDPNIRFRDMLPQQNIDRAGIKNRVYSNSVYEILENGQPAGVCILEYATPLQTLFAMSQDAKAGFSREDRLEQAKLFCRTLEEILEDVPESRNNCRLIVYQEPTDGNSFSLSQEVLRHIRQEEKEEVTMNAPMTSVAPPPSVLSQEPRLLISGMDQPLPLRTDLI
notes: STING (TMEM173), endogenous in murine embryonic fibroblasts and bone marrow-derived macrophages; source: endogenous, MEF lysate and BMDM lysate (cells transfected with B-DNA)
On to B1, for which the “stoichiometry N” value was found to be 2.
